# Laboratory results: article PMC8028314, “Sae2 and Rif2 regulate MRX endonuclease activity at DNA double-strand breaks in opposite manners” (Cell Reports, 2021)
# Target: T1, Mre11-Rad50 complex (S. cerevisiae, UniProt P32829 1-692; P12753 1-1312)
# T1 construct: Mre11, S. cerevisiae; Rad50, S. cerevisiae; untagged; they were not measured here; also called wild-type MR; source: Sf9 cells, purified (NiNTA, HiTrap SP HP, HiTrap Q HP); copies: 2 + 2
# Experiment: pull-down; MBP-Rif2-his from Sf9 lysate bound to amylose resin, washed with 1 M then 0.1 M NaCl buffer (50 mM Tris-HCl pH 7.5, 0.2% NP40, 2 mM EDTA); recombinant MR variants (1 ug) added, 1 h at 4°C; washed with 0.1 M NaCl buffer; eluted with 20 mM maltose and cleaved with PreScission protease; Ponceau (Rif2) and western blots (anti-Rad50, anti-His)
# Conditions: both partners purified
# T1 sequence (P32829 whole entry, chain 1 of 2): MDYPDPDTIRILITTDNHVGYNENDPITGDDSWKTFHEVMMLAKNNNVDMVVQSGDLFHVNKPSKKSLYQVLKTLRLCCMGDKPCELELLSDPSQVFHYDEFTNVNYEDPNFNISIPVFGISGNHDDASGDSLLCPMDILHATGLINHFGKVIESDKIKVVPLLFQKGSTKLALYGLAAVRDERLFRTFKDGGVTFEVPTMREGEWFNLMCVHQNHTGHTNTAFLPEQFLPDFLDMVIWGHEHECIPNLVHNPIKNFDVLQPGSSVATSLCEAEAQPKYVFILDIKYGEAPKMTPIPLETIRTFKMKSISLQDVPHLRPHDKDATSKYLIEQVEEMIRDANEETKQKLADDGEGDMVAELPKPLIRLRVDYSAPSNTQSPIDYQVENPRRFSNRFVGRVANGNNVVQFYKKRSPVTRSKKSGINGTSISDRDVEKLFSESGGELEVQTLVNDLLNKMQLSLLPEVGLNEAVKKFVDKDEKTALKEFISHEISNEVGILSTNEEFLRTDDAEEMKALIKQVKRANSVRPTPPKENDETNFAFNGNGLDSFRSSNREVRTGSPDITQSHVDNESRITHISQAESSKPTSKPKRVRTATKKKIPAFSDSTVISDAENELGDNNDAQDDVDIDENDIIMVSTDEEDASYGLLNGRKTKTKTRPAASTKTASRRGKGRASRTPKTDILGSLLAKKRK
# T1 sequence (P12753 whole entry, chain 2 of 2): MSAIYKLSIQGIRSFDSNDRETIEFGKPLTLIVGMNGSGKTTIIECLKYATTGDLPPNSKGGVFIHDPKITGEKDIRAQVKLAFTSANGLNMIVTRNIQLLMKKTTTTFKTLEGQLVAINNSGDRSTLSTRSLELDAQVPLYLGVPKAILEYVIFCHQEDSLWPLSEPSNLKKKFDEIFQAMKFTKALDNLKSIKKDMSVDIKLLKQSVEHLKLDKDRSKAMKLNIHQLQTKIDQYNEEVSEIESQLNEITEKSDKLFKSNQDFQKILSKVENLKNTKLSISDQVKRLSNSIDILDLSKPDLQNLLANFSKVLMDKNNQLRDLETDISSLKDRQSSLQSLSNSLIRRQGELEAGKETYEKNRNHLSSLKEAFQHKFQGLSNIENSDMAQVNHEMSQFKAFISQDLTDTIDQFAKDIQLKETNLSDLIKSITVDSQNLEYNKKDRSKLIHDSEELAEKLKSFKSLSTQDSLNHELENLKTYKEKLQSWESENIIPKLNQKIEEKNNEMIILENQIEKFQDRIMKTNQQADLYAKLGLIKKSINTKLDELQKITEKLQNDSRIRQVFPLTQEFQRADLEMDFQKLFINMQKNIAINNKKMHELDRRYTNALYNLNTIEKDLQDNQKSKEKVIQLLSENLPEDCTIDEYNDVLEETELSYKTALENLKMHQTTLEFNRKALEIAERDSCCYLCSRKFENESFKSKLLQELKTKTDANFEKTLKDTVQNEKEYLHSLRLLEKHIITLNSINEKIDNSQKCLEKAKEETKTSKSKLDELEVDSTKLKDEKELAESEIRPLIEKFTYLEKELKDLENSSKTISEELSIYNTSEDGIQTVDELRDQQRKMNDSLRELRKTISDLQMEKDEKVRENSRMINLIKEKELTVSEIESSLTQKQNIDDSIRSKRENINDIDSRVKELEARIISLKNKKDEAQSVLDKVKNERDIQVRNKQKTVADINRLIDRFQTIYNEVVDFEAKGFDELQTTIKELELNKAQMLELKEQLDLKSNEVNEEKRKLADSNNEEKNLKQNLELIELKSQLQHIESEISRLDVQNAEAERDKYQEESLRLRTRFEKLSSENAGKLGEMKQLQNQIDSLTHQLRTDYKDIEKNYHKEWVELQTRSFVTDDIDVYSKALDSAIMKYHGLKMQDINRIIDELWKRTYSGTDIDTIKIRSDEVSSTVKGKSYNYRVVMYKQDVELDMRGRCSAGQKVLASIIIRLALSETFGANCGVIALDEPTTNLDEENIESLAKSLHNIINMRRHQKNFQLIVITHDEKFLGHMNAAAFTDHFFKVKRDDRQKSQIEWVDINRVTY
binder,measurement,value
"MBP-Rif2-his (natural protein, S. cerevisiae, UniProt Q06208 1-395, looked up, Rif2, S. cerevisiae; recombinant full-length Rif2; The MBP tag was cleaved with PreScission protease only after elution from the resin; In the ATPase and nuclease assays purified Rif2-his with MBP cleaved off was used; The construct was a gift from A. Bianchi; also called recombinant Rif2; not shown: MBP, N-terminal, kept; 10xHis, C-terminal, kept) MEHVDSDFAPIRRSKKVVDSDKIVKAISDDLEQKNFTVLRKLNLVPIKKSVSSPKVCKPSPVKERVDHVFYQKFKSMALQELGTNYLSISYVPSLSKFLSKNLRSMKNCIVFFDKVEHIHQYAGIDRAVSETLSLVDINVVIIEMNDYLMKEGIQSSKSKECIESMGQASYSGQLDFEASEKPSNHTSDLMMMVMRKINNDESIDHIVYFKFEQLDKLSTSTIIEPSKLTEFINVLSVLEKSNNIAFKVLIYSNNVSISSLLSTSLKKKLNTKYTVFEMPILTCAQEQEYLKKMIKFTFDSGSKLLQSYNSLVTCQLNNKESNLAIFFEFLKVFPHPFTYLFNAYTEIIVQSRTFDELLDKIRNRLTIKNYPHSAYNFKKNQRLPLKLTRKVHDR",binding result,binds
